Results published in publication PMC8982406.
Where a chain is given by its changes, count along the chain named. In names and notes the source's numbering stands.

T1: full-length RLIM protein (wild type; mapping and mutation co-IPs), Q9NVW2
T1 chain: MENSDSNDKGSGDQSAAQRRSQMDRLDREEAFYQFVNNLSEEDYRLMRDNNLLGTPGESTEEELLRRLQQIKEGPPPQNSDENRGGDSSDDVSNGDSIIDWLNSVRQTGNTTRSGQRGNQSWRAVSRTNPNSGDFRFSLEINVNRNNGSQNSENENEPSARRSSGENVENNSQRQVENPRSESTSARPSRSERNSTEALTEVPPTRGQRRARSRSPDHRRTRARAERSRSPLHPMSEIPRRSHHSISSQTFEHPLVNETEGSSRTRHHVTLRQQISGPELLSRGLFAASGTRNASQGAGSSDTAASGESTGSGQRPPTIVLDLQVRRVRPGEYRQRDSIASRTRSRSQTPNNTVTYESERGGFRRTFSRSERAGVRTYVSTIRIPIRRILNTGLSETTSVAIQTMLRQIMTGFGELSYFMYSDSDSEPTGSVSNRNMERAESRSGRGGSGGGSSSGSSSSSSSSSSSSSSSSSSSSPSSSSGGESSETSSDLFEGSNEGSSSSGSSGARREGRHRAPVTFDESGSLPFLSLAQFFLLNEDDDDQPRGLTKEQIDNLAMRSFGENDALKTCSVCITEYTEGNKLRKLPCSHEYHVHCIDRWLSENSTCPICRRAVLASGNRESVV

T2: ZC4H2 (wild type; mapping and mutation co-IPs), Q9NQZ6
T2 chain: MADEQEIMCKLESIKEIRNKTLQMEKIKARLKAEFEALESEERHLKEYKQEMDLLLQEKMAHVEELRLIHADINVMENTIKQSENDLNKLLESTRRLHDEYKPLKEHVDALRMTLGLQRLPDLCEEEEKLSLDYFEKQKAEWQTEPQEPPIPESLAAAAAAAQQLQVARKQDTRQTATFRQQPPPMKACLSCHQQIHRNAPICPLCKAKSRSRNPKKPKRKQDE

B1: ZC4H2 (wild type; mapping and mutation co-IPs), Q9NQZ6 A200V (protein)
chain: T2 chain with A200V
B2: ZC4H2 (wild type; mapping and mutation co-IPs), Q9NQZ6 R198Q (protein)
chain: T2 chain with R198Q
B3: ZC4H2 (wild type; mapping and mutation co-IPs), Q9NQZ6 R213W (protein)
chain: T2 chain with R213W
B4: ZC4H2 (wild type; mapping and mutation co-IPs), Q9NQZ6 V63L (protein)
chain: T2 chain with V63L
B5: full-length RLIM protein (wild type; mapping and mutation co-IPs), Q9NVW2 R599C (protein)
chain: T1 chain with R599C
B6: full-length RLIM protein (wild type; mapping and mutation co-IPs), Q9NVW2 P77L (protein)
chain: T1 chain with P77L
B7: full-length RLIM protein (wild type; mapping and mutation co-IPs), Q9NVW2 P587R (protein)
chain: T1 chain with P587R
B8: full-length RLIM protein (wild type; mapping and mutation co-IPs), Q9NVW2 Y356C (protein)
chain: T1 chain with Y356C
B9: full-length RLIM protein (wild type; mapping and mutation co-IPs), Q9NVW2 R387C (protein)
chain: T1 chain with R387C
B10: full-length RLIM protein (wild type; mapping and mutation co-IPs), Q9NVW2 D598N (protein)
chain: T1 chain with D598N
B11: full-length RLIM protein (wild type; mapping and mutation co-IPs), Q9NVW2 R365C (protein)
chain: T1 chain with R365C
B12: full-length RLIM protein (wild type; mapping and mutation co-IPs), Q9NVW2 R611C (protein)
chain: T1 chain with R611C

Target: T1, full-length RLIM protein (wild type; …)
Assay: co-IP (IP: FLAG, IB: myc), blot quantification
Settings: chain shown with the change; ZC4H2-myc + RLIM-FLAG, MG132 +; parent: 1.00

Row | ratio to parent | Molecule
1 | 0.18 | B1
2 | 0.15 | B2
3 | 0.19 | B3
4 | 1.2 | B4

Target: T2, ZC4H2 (wild type; mapping and mutation …)
Assay: co-IP (IP: FLAG, IB: myc), blot quantification
Settings: chain shown with the change; hRLIM-myc + ZC4H2-FLAG, MG132 +, HEK293 cells; parent: 1.00

Row | ratio to parent | Molecule
5 | 0.65 | B5
6 | 0.95 | B6
7 | 0.72 | B7
8 | 0.91 | B8
9 | 0.18 | B9
10 | 0.23 | B10
11 | 1.02 | B11
12 | 0.17 | B12

target: full-length RLIM protein (wild type; mapping and mutation co-IPs) (UniProt Q9NVW2); assay: co-IP (IP: FLAG, IB: myc), blot quantification; settings: ZC4H2-myc + RLIM-FLAG, MG132 +; parent: 1.00

Row | ratio to parent | Molecule
13 | 0.13 | ZC4H2 (wild type; mapping and mutation co-IPs) (from UniProt Q9NQZ6) A201S
